# According to patent publication US20190225652A1, “GENERATION OF PEPTIDES” (Hexima Limited, priority 2015, published 2019):
# T1: R1 peptide derivative GLPVFAEFLPLFSKFGSRMHILKSTRNGLP
# T1 chain: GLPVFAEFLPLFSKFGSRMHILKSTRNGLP
# T2: R1 peptide derivative GLVFAEFLPLFSKFGSRMHILKNG
# T2 chain: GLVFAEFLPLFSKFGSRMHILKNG
# T3: R1 peptide derivative GLVFAEFLPLFSKFGSRMHILKNGL
# T3 chain: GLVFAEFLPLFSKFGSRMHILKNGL
# T4: R1 peptide derivative KLVFAEFLPLFSKFGSRMHILKNGL
# T4 chain: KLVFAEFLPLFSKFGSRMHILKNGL
# T5: R1 peptide derivative QLVFAEFLPLFSKFGSRMHILKNGL
# T5 chain: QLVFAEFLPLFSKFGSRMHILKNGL
# T6: R1 peptide derivative VFAEFLPLFSKFGSRMHILKNGL
# T6 chain: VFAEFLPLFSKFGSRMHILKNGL
# T7: synthetic linear kalata B1 precursor carrying the native C-terminal pro-hepta-peptide GLPSLAA (wt kB1 precursor)
# T7 chain: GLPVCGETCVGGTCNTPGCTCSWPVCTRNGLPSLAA
# B1: recombinant Oldenlandia affinis asparaginyl endopeptidase OaAEP1b, activated (rOaAEP1b) (protein)
# chain: MVRYLAGAVLLLVVLSVAAAVSGARDGDYLHLPSEVSRFFRPQETNDDHGEDSVGTRWAVLIAGSKGYANYRHQAGVCHAYQILKRGGLKDENIVVFMYDDIAYNESNPRPGVIINSPHGSDVYAGVPKDYTGEEVNAKNFLAAILGNKSAITGGSGKVVDSGPNDHIFIYYTDHGAAGVIGMPSKPYLYADELNDALKKKHASGTYKSLVFYLEACESGSMFEGILPEDLNIYALTSTNTTESSWCYYCPAQENPPPPEYNVCLGDLFSVAWLEDSDVQNSWYETLNQQYHHVDKRISHASHATQYGNLKLGEEGLFVYMGSNPANDNYTSLDGNALTPSSIVVNQRDADLLHLWEKFRKAPEGSARKEVAQTQIFKAMSHRVHIDSSIKLIGKLLFGIEKCTEILNAVRPAGQPLVDDWACLRSLVGTFETHCGSLSEYGMRHTRTIANICNAGISEEQMAEAASQACASIP
# Key:
# rOaAEP1b [1] = assay: Inhibition assay: rOaAEP1b activity against wt IQF peptide; format: biochemical, Oldenlandia affinis; settings: 40 minutes preincubation, rOaAEP1b 4.4 μg mL^−1, IQF peptide 11 μM, 90 minutes
# Method: FIG. 16 is a graphical representation of rOaAEP1b activity against the IQF peptide Abz-STRNGLPS-Y(3NO2) [SEQ ID NO:21] in the presence of protease inhibitors. rOaAEP1b (4.4 μg mL^−1 total protein) was allowed to cleave the IQF peptide (11 μM) for 90 minutes. Enzyme activity against the IQF peptide in the presence of either the Ac-YVAD-CHO or Ac-STRN-CHO inhibitors is reported relative to a no inhibitor control at the 90 minutes time point.
# To assay activity of recombinant AEPs (rOaAEP1b, rOaAEP3, rOaAEP4 or rOaAEP5) against both internally-quenched and other fluorescent peptides, substrate and enzyme were diluted as appropriate in activity buffer (50 mM sodium acetate, 50 mM NaCl, 1 mM EDTA, 0.5 μM TCEP, pH 5). […] The change in fluorescence intensity over time was monitored on a SpectraMax M2 (Molecular Devices) using excitation/emission wavelengths of 320/420 nm (IQF peptides) or 360/460 nm (other fluorescent peptides).
# To investigate the impact of inhibitors on enzyme activity against the wild type IQF peptide, Abz-STRNGLPS-Y(3NO2), rOaAEP1b (4.4 μg mL^−1 total protein) was incubated with Ac-YVAD-CHO (500 μM) or Ac-STRN-CHO (409 μM) for 40 minutes prior to addition to the substrate (11 μM). Enzyme activity against the wt IQF peptide was then assessed as described above.
# rOaAEP1b [2] = assay: Cyclization assay with rOaAEP1b (MALDI MS); format: biochemical, Oldenlandia affinis; settings: MALDI MS
# rOaAEP1b [3] = assay: Kinetics of rOaAEP1b-mediated cyclisation of wt kB1 precursor (RP-HPLC, Michaelis-Menten); format: biochemical, Oldenlandia affinis; settings: substrate 75-250 μM, room temperature, 5 min, enzyme 19.7 μg ml^−1 total protein, ±s.e.m.
# Method: FIG. 7 is a graphical representation showing the kinetics of rOaAEP1b-mediated cyclisation. Varying concentrations of substrate (kB1wt precursor) were incubated with enzyme (19.7 μg mL^−1 total protein) for 5 min. The amount of product formed was inferred by monitoring depletion of the precursor by RP-HPLC. […] The kinetic parameters derived from this plot are listed (±SEM).
# To determine the kinetics of rOaAEP1b activity against the wt kB1 precursor (FIG. 1; SEQ ID NO: 11), the substrate was assayed at room temperature at a range of concentrations between 75 and 250 μM in a total volume of 20-160 μl of activity buffer. The total protein concentration of the enzyme preparation added to the kinetic assays was 19.7 μg ml^−1. The reaction was quenched after 5 min with 0.1% TFA and the volume adjusted to 800 μl. A volume of 700 μl was loaded onto a reversed-phase C18 analytical column (Agilent Eclipse C18, 5 μm, 4.6×150 mm) and peptides were separated by HPLC (19 min linear gradient of 12-60% acetonitrile, 0.1% TFA at 1 ml min^−1). The identity of eluted peaks was confirmed using MALDI MS. The area under the curve corresponding to the precursor peptide was quantitated by comparison to a standard curve and initial velocities were calculated by converting this to μmoles product formed. […]
# [4] = tested on: rOaAEP1b, rOaAEP3, rOaAEP4 and rOaAEP5; assay: Cyclization assay with rOaAEP1b, rOaAEP3, rOaAEP4 and rOaAEP5 (MALDI/ESI MS); format: biochemical, Oldenlandia affinis; settings: 140 μM, no ligation partner, ESI-MS
# Method: Linear target peptides (280 μM, unless otherwise indicated) were incubated with rOaAEP1b, rOaAEP3, rOaAEP4 or rOaAEP5 (total protein concentration as indicated in the description of figures) in activity buffer (50 mM sodium acetate, 50 mM NaCl, 1 mM ethylenediaminetetraacetic acid [EDTA], 0.5 μM Tris(2-carboxyethyl)phosphine hydrochloride [TCEP], pH 5). The reaction was allowed to proceed for up to 22 hours at room temperature and was analysed by matrix-assisted laser desorption/ionization mass spectrometry (MALDI MS), high performance liquid chromatography (HPLC) or nuclear magnetic resonance (NMR) as appropriate.
# (§1) Cyclization or inter-molecular ligation of linear target peptides was monitored by MALDI or ESI MS. In both cases, the reaction mixture (5-50 μL) was de-salted using C18 zip tips (Millipore) and eluted in 4 μL 50-75% v/v acetonitrile, 0.1% v/v trifluoroacetic acid (TFA).
# (§2) For MALDI MS, a saturated MALDI matrix solution (α-cyano-4-hyroxycinnamic acid, CHCA, Bruker) prepared in 95% v/v acetonitrile, 0.1% v/v TFA was diluted 1:22 such that the final matrix solution comprised 90% v/v acetonitrile, 0.1% v/v TFA and 1 mM NH4H2PO4. Eluted samples were mixed 1:4 with the MALDI matrix, spotted onto a MALDI plate and analyzed by an Ultraflex III TOF/TOF (Bruker) in positive reflector mode. Data were analyzed using the flexAnalysis program (Bruker).
# (§3) For ESI MS, 96 μl of 75% v/v acetonitrile, 01% v/v TFA was added to the de-salted sample. The sample was then injected into a MicroTOF Q (Bruker) and data was collected in positive ionisation mode. The mass of ligated or cyclized product was determined by charge deconvolution using the Compass DataAnalysis program (Bruker).
# The ability of activated AEPs (rOaAEP1b, rOaAEP3, rOaAEP4 and rOaAEP5) to cyclize peptide substrates structurally unrelated to cyclotides was tested in the cyclization assay described in the Materials and Methods. The anti-malarial peptide R1 (Harris et al. (2009) J Biol Chem 284(14):9361-9371; Harris et al. (2005) Infect Immun 73(10):6981-6989); Bac2A, a linear derivative of the bovine peptide bactenecin (Wu and Hancock (1999) Antimicrob Agents Ch 43:1274-1276); and the anti-fungal peptide EcAMP1 (Nolde et al. (2011) J Biol Chem 286(28):25145-25153) were produced with additional AEP recognition residues and used as the substrates.
# To investigate the sequence requirements for in vitro cyclization, R1 was used as a model peptide. The recognition residues added to this model peptide were sequentially trimmed to determine the minimal requirements for AEP-mediated cyclization. The N- and C-terminal recognition residues were also substituted with alternate amino acids to determine if particular classes of residues were preferred for cyclization by these recombinant AEPs. The ability of activated AEPs (rOaAEP1b, rOaAEP3, rOaAEP4 and rOaAEP5) to cyclize the R1 peptide with varied flanking sequences was then tested in the cyclization assay described in the Materials and Methods (FIG. 10; Table 3).
# [5] = tested on: rOaAEP1b, rOaAEP3, rOaAEP4 and rOaAEP5; assay: Intermolecular ligation assay with recombinant AEPs; format: biochemical, Oldenlandia affinis; settings: target 140 μM, ligation partner GLPVSGE or PLPVSGE 700 μM, enzymes 19.7 μg mL^−1, 6-22 h, ESI-MS
# Method: Target peptides (140 μM) were incubated with a ligation partner peptide (700 μM) and a recombinant AEP (rOaAEP1b, rOaAEP3, rOaAEP4 or rOaAEP5 at 19.7 μg mL^−1 total protein) in activity buffer (50 mM sodium acetate, 50 mM NaCl, 1 mM EDTA, 0.5 μM TCEP, pH 5). The reaction was allowed to proceed for up to 22 hours at room temperature and was analysed by MALDI MS or electrospray ionisation (ESI) mass spectrometry as appropriate.
# as §1, §2, §3
# To investigate the ability of recombinantly produced AEPs to perform inter-molecular ligation (as well as the intra-molecular ligation required to produce backbone-cyclized peptides), target peptides were incubated with ligation partner peptides as well as active enzyme (FIG. 11). The appearance of new linear peptides were tracked. […]
# [6] = molecular target: T1, R1 peptide derivative …
# [7] = molecular target: T2, R1 peptide derivative …
# [8] = molecular target: T3, R1 peptide derivative …
# [9] = molecular target: T4, R1 peptide derivative …
# [10] = molecular target: T5, R1 peptide derivative …
# [11] = molecular target: T6, R1 peptide derivative …
# [12] = molecular target: T7, synthetic linear kalata B1 precursor …
molecule,measurement,setting,value
Ac-STRN-aldehyde,efficacy of inhibitor against rOaAEP1b,rOaAEP1b [1]; inhibitor 409 μM,limited efficacy
wt kB1 precursor: synthetic linear kalata B1 precursor carrying the native C-terminal pro-hepta-peptide (GLPSLAA) (GLPVCGETCVGGTCNTPGCTCSWPVCTRNGLPSLAA; kB1wt),processing/cyclization by rOaAEP1b,rOaAEP1b [2],"consistent with the expected mass of mature, cyclic kB1"
same,kcat,"rOaAEP1b [3]; conservative estimate (32 kDa, total protein taken as active enzyme)",0.53 (±0.1) s^−1
same,Km,rOaAEP1b [3],212 µM
"GLP-NaD1-TRNGLP: plant defensin NaD1 with AEP recognition residues at N- and C-termini, expressed in Pichia pastoris (GLPRECKTESNTFPGICITKPPCRKACISEKFTDGHCSKILRRCLCTKPCTRNGLP; Target peptides)",AEP-mediated backbone cyclization of modified NaD1,[4],no evidence of backbone-cyclization
same,"inter-molecular ligation, C-terminal labelling",[5],"new, linear, peptides were detected"
Ac-YVAD-CHO,efficacy of inhibitor against rOaAEP1b,rOaAEP1b [1]; inhibitor 500 μM,limited efficacy
B1,Cyclic product (%),[6],78.8%
same,Linear precursor (%),[6],21.2%
same,Linear precursor (%),[7],100%
same,Cyclic product (%),[8],92.9%
same,Linear precursor (%),[8],7.1%
same,Cyclic product (%),[9],82.2%
same,Linear precursor (%),[9],17.8%
same,Cyclic product (%),[10],93.1%
same,Linear precursor (%),[10],6.9%
same,Cyclic product (%),[11],49.6%
same,Linear precursor (%),[11],27.7%
same,Linear product (%),[11],27.7%
same,Km,[12],212 (±76) µM for Km
same,kcat,[12],0.53 (±0.1) s^-1 for kcat
same,kcat/Km,[12],"2,500 M^-1 s^-1 for kcat/Km"
